# Data taken from publication PMC5606208.
# Tests used:
# [1] = biological target: Phos-HP1α (HP1α co-expressed with CKII, phosphorylated in the N-terminus and hinge) (human); experiment: native MS
# [2] = biological target: WT HP1α (human heterochromatin protein 1 alpha, unmodified) (human); experiment: AUC
Substance,stoichiometry N [1],Kd [2]
"Phos-HP1α (HP1α co-expressed with CKII, phosphorylated in the N-terminus and hinge) (natural protein)",2,
"WT HP1α (human heterochromatin protein 1 alpha, unmodified) (natural protein)",,1120 nM
